Measured values taken from paper PMC7096168.

T1: Su(Hw) zinc finger cluster (UniProt P08970 220-619)
T1 sequence: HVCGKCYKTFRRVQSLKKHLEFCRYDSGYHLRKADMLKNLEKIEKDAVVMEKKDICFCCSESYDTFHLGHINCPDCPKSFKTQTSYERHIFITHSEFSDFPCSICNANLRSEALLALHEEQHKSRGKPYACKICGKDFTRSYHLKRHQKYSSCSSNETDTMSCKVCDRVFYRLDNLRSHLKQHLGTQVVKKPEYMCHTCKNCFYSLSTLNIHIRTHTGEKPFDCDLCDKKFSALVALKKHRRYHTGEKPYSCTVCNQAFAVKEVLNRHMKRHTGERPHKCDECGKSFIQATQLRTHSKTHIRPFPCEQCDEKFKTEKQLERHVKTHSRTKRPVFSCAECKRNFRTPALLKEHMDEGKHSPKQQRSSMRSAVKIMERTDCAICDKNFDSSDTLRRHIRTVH

T2: dCTCF zinc finger cluster (UniProt Q9VS55 294-614)
T2 sequence: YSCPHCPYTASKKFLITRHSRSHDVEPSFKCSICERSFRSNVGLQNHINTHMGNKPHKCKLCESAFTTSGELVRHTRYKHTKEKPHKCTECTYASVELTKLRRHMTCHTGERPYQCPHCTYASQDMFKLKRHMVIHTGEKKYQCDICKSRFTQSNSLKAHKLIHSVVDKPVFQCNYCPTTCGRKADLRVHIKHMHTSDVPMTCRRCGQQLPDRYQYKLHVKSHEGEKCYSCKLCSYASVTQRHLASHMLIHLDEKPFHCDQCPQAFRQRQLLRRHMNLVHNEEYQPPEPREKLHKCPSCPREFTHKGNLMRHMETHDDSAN

B1: F2177 (dsDNA)
DNA 1: ATGCCTAAAAGTATGCAGAAATTTGTTCAACAAGTCTGCTTATGTGCACCCTCTCGCGATCGGTGGCATAACCAATCGAGGATTCAGCTCTTGAGCTACCTGCCGAAAGGGGCGCGGCGACCTTAAGGGCGACATCTATATCTCGCATAGTGTGCAGAACTGCTTGTTCCTAGTCAC
DNA 2: GTGACTAGGAACAAGCAGTTCTGCACACTATGCGAGATATAGATGTCGCCCTTAAGGTCGCCGCGCCCCTTTCGGCAGGTAGCTCAAGAGCTGAATCCTCGATTGGTTATGCCACCGATCGCGAGAGGGTGCACATAAGCAGACTTGTTGAACAAATTTCTGCATACTTTTAGGCAT
B2: F2177ΔC (dsDNA)
DNA 1: ATGCCTAAAAGTATGCAGAAATTTGTTCAACAAGTCTGCTTATGTGCACCCTCTCGCGATCGGTGGCATAACCAATCGAGGATTCAGCTCTTGAGCTACCTGCCGAAAGGGGCGCGGCAACCTTAAGCTTGCATAGTGTGCAGAACTGCTTGTTCCTAGTCAC
DNA 2: GTGACTAGGAACAAGCAGTTCTGCACACTATGCAAGCTTAAGGTTGCCGCGCCCCTTTCGGCAGGTAGCTCAAGAGCTGAATCCTCGATTGGTTATGCCACCGATCGCGAGAGGGTGCACATAAGCAGACTTGTTGAACAAATTTCTGCATACTTTTAGGCAT
B3: F2177ΔSu (dsDNA)
DNA 1: GTTCAACAAGTCTGCTTATGTGCACCCTCTCGCGATCGGTGGCATAACCAATCGAGGATTCAGCTCTTGAGCTACCTGCCGAAAGGGGCGCGGCGACCTTAAGGGCGACATCTATATCTCGCATAGTGTGCAGAACTGCTTGTTCCTAGTCAC
DNA 2: GTGACTAGGAACAAGCAGTTCTGCACACTATGCGAGATATAGATGTCGCCCTTAAGGTCGCCGCGCCCCTTTCGGCAGGTAGCTCAAGAGCTGAATCCTCGATTGGTTATGCCACCGATCGCGAGAGGGTGCACATAAGCAGACTTGTTGAAC
B4: F2177Δ21 (dsDNA)
DNA 1: ATGCCTAAAAGTATGCAGAAATTTGTTCAACAAGTCTGCTTATGTGCACCCTCTCGCGATCGGTGGCATAACCAATCGAGGATTCAGCTCTTGAGCTACCTGCAAGCTTAAGGGCGACATCTATATCTCGCATAGTGTGCAGAACTGCTTGTTCCTAGTCAC
DNA 2: GTGACTAGGAACAAGCAGTTCTGCACACTATGCGAGATATAGATGTCGCCCTTAAGCTTGCAGGTAGCTCAAGAGCTGAATCCTCGATTGGTTATGCCACCGATCGCGAGAGGGTGCACATAAGCAGACTTGTTGAACAAATTTCTGCATACTTTTAGGCAT
B5: CTCF×4 (dsDNA)
DNA 1: ACTAGTGCTGCAGCGCCACCTGGCCTTGGAGATCCTGCAGCGCCACCTGGCCTTGGAGATCCTGCAGCGCCACCTGGCCTTGGAGATCTCCAAGGCCAGGTGGCGCTGCAGCCCCGGG
DNA 2: CCCGGGGCTGCAGCGCCACCTGGCCTTGGAGATCTCCAAGGCCAGGTGGCGCTGCAGGATCTCCAAGGCCAGGTGGCGCTGCAGGATCTCCAAGGCCAGGTGGCGCTGCAGCACTAGT

molecular target: T1, Su(Hw) zinc finger cluster; experiment: EMSA

Does B1 bind?
Result: binds

Does B2 bind?
Result: binds

Does B3 bind?
Result: no binding

molecular target: T2, dCTCF zinc finger cluster; experiment: EMSA

Does B1 bind?
Result: binds

Does B4 bind?
Result: binds

Does B2 bind?
Result: no binding

Does B5 bind?
Result: binds

Does B3 bind?
Result: binds
